The text below walks through data of patent US8012471B2, “Screening and treatment methods using IGS5 enzymes of the metalloprotease family” (Abbott Healthcare Products B.V., priority 1999, dated 2011).

Common to all, as to type: biochemical
In experiment [1] the target is T1, ECE-1 (Homo sapiens, UniProt P42892).
T1 sequence (P42892 1-770): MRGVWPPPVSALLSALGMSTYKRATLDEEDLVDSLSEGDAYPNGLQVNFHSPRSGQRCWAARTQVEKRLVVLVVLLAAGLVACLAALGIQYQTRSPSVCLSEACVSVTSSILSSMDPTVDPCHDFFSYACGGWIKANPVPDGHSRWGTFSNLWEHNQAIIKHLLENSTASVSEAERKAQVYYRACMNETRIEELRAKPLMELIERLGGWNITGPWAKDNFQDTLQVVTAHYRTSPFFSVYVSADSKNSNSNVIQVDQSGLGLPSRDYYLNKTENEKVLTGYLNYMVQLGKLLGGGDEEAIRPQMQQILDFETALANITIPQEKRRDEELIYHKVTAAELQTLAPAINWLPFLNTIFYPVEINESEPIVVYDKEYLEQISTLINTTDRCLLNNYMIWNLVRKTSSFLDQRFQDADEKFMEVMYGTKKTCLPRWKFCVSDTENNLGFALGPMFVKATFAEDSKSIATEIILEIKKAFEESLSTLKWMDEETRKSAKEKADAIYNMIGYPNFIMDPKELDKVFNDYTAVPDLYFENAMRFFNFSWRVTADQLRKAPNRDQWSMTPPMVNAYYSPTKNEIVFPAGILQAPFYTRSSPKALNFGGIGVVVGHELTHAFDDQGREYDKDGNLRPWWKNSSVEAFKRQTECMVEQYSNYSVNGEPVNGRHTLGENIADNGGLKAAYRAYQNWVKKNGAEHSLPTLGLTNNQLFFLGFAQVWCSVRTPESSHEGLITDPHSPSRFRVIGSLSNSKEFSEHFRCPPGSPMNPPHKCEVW
The experiment can be described thus: PACAP(1-27) cleavage by recombinantly produced ECE-1. The following applies: assay conditions as for IGS5. On the procedure: (§1) A quantity of 80 μl of the assay buffer, 10 μl of enzyme working solution (5 μg/ml) and 10 μl of substrate stock solution (PACAP(1-27)) were mixed in an Eppendorf vial and incubated for 120 min. at 37° C. The enzymatic reaction was subsequently terminated by heating to 95° C. for 5 min. After centrifugation (Heraeus Biofuge B, 3 min) the supernatant was subjected to HPLC
(§2) In addition, it was also analysed whether PACAP(1-27) is cleaved by other recombinantly produced metalloproteases of the M13 family, such as NEP, ECE-1 and XCE/DINE. […] The data summarized herein indicate that PACAP(1-27) might be the physiologically relevant substrate of hSEP.

For experiment [2], the target named is T2, XCE/DINE (Homo sapiens, UniProt O95672).
T2 sequence (O95672 1-775): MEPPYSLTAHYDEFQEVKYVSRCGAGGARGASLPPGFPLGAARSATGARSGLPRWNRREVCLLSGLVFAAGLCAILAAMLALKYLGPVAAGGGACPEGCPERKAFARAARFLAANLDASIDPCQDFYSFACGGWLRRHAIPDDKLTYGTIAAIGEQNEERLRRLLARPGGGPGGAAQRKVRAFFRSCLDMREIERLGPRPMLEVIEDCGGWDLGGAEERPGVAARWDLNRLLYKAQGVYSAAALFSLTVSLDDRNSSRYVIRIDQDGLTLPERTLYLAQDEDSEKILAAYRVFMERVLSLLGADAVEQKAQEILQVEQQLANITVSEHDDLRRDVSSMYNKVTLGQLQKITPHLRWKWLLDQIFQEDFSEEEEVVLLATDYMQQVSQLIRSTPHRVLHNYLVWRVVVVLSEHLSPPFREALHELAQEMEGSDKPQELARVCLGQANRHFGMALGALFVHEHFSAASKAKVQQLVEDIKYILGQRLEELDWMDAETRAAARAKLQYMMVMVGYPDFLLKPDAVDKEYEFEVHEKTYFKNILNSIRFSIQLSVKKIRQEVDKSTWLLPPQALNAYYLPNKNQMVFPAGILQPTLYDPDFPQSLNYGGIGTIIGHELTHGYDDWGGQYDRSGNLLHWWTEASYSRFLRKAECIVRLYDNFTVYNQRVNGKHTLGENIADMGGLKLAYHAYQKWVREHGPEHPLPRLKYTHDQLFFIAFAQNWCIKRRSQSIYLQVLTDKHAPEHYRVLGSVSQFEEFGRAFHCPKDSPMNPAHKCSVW
The experiment can be described thus: PACAP(1-27) cleavage by recombinantly produced XCE/DINE. The following applies: assay conditions as for IGS5. On the procedure:
as §1, §2

In experiment [3] the target is NEP (Homo sapiens, UniProt P08473). The experiment can be described thus: PACAP(1-27) cleavage by recombinantly produced NEP. The following applies: assay conditions as for IGS5. On the procedure: as §1, §2
NEP, sequence (P08473 whole entry, the tested form may be a part): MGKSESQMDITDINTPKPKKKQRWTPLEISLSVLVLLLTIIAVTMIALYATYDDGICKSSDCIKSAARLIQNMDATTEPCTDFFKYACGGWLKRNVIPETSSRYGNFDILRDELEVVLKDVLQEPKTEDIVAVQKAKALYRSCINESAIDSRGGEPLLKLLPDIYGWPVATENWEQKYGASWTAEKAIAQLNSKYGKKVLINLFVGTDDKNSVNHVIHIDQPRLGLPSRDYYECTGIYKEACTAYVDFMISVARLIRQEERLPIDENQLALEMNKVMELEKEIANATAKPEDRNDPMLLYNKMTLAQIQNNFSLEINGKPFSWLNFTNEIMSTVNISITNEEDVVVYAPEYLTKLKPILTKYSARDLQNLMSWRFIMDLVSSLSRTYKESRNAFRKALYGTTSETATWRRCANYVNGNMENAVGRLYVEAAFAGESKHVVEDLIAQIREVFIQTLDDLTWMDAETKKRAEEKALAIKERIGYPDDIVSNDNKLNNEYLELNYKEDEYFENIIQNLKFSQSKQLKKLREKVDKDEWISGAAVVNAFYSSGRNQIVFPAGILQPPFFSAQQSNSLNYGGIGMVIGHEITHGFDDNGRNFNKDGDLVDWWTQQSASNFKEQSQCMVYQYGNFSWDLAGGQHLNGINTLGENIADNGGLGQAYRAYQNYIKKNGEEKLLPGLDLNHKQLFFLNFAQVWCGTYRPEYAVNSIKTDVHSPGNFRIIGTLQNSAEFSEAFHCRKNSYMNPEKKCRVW
Experiment [4] has as its target T3, IGS5 polypeptide (His6-tagged IGS5 ectodomain) (Homo sapiens, UniProt Q495T6, V306M).
T3 construct: made in house; host or cells: Spodoptera frugiperda Sf9 (baculovirus IGBV73)
T3 sequence (Q495T6 with tags, fused parts or gaps V306M): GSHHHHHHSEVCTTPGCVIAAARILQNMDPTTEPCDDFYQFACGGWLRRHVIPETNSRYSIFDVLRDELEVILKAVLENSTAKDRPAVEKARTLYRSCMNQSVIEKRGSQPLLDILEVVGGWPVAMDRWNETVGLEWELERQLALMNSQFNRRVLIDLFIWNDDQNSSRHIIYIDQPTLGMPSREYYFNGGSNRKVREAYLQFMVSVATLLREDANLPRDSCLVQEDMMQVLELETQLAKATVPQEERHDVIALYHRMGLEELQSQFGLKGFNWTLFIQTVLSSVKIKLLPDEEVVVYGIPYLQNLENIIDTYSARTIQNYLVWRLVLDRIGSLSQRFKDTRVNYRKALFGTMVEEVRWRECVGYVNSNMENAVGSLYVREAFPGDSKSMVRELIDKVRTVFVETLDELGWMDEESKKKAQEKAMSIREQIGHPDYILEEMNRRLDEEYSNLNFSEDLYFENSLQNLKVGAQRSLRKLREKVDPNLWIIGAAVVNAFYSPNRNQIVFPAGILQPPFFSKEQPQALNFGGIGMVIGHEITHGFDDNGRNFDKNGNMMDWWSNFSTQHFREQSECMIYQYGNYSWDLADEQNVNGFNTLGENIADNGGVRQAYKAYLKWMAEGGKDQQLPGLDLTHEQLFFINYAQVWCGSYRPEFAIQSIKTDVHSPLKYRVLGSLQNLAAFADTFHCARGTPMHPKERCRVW
Kind of experiment: Hydrolysis of vasoactive peptides and PACAP(1-27) by IGS5 polypeptide (HPLC). The following applies: 100 μl assay volume; 100 ng IGS5 polypeptide; 0.5 μM substrate; 2 h, 37° C. As to the method:
The enzymatic activity of IGS5 polypeptides of the invention was tested with regard to the metabolism of biologically active peptides. In particular it was tested whether these IGS5 polypeptides may act on a variety of vasoactive peptides known in the state of the art e.g. such like atrial natriuretic peptide (ANP), bradykinin, big endothelin (Big ET-1), endothelin (ET-1), substance P and angiotensin-1. In the context of the present invention in particular it was tested whether the IGS5 ectodomain, which is a novel human metalloprotease, hydrolyzes said vasoactive peptides. For comparison the assay was also performed for a known member of the metalloprotease family which was described earlier as soluble secreted endopeptidase (SEP) by Ikeda, Emoto et al. (J. Biol. Chem., Vol. 274 (1999): pp. 32469-32477). Furthermore, it was tested whether the activity of IGS5 to convert a Big-ET-1 analogue (the so-called 17 aa Big-ET) may be inhibited by reference compounds that are used to determine the inhibition properties with regard to enzymes having ECE and/or NEP-characteristics. […] It was then checked whether the activity of IGS5 to convert PACAP(1-27) may be inhibited by a compound known to be a IGS5 inhibitor. The compound used to test the inhibition of IGS5-activity on PACAP(1-27) was the active metabolite of (3S,2′R)-3-{1-[2′-(ethoxycarbonyl)-4′-phenylbutyl]-cyclopentane-1-carbonylamino}-2,3,4,5-tetrahydro-2-oxo-1H-1-benzazepine-1-acetic acid (compound Ia-2 from WO 02/094176).
The enzymatic reaction was subsequently terminated by heating to 95° C. for 5 min. After centrifugation (Heraeus Biofuge B, 3 min) the supernatant was subjected to HPLC
In order to separate the remaining substrate from the cleavage products reversed phase HPLC technique was used with a CC 125/4 Nucleosil 300/5 C18 RP column and a CC 8/4 Nucleosil 100/5 C18 precolumn (commercially available from Macherey-Nagel, Duren, Germany). Thus, 60 μl of the reaction samples obtained in Example 7B were injected into the HPLC, and the column was eluted at a flow rate of 1 ml/min by applying the following gradient and solutions: […]
Peptides were detected by absorbance at 214 nm (UV spectroscopy) and/or by fluorescence with an excitation wavelength of 328 nm and an emission wavelength of 393 nm.
% Hydrolysis: For detection of substrate cleavage, the percentage of hydrolysis was calculated by directly comparing the substance peak areas in HPLC traces of the sample without addition of any IGS5 enzyme activity (blank) and of the samples with addition of IGS5 enzyme (sample). % hydrolysis was calculated on basis of the respective peak areas. % hydrolysis=100*(1−(Asample/Ablank))

For “His-Ser-Asp-Gly-Ile-Phe-Thr-Asp-Ser-Tyr-Ser-Arg-Tyr-Arg-Lys-Gln-Met-Ala-Val-Lys-Lys-Tyr-Leu-Ala-Ala-Val-Leu [PACAP (1-27)]”, the “Cleavage of PACAP(1-27) by ECE-1” value in experiment [1] is “None of the aforementioned enzymes was able to cleave”. Besides, the “Cleavage of PACAP(1-27) by XCE/DINE” value in experiment [2] was “None of the aforementioned enzymes was able to cleave”. In addition, the “Cleavage of PACAP(1-27) by NEP” value in experiment [3] is recorded as “None of the aforementioned enzymes was able to cleave”. Also, in experiment [4], the “% Hydrolysis by IGS5 Polypeptide” value is recorded as 69%.
